According to PMC2930068:
Like-named read-outs stand apart in the source and are kept apart here.

How the values were obtained:
STAT1 = STAT1 (UniProt P42224); assay: sedimentation velocity analytical ultracentrifugation; details: reference: uSTAT1; sites Y701
[1] = target: full-length importin-α5 with C-terminal Strep-tag (human) (UniProt P52294); assay: SEC
[2] = target: importin α5, GST-tag removed (human) (UniProt P52294); assay: AUC
[3] = target: GST-importin α1/α5 (res. 1-446 of α1/449-538 of α5) (human) (UniProt P52292); assay: SPR
[4] = target: GST-importin α5 (1-538) Tyr476Gly (human) (UniProt P52294); assay: SPR
Sequence of GST-importin α5 (1-538) Tyr476Gly (human) (P52294 whole entry Y476G): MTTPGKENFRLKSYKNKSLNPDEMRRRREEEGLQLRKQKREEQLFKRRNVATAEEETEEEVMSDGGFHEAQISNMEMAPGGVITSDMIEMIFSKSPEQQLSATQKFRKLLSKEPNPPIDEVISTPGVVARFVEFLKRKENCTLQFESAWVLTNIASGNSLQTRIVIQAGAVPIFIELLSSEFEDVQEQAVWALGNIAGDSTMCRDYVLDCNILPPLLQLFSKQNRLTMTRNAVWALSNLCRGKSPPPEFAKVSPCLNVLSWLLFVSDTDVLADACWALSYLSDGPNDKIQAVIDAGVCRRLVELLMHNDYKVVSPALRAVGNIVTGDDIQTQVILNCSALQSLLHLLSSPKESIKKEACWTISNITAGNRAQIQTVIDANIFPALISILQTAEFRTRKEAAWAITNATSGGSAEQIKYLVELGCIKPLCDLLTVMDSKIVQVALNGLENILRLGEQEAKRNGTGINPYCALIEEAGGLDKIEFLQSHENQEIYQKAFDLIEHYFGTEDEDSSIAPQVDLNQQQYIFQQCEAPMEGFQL

[5] = target: GST-importin α5 (res. 1-538) (human) (UniProt P52294); assay: SPR
Sequence of GST-importin α5 (res. 1-538) (human) (P52294 whole entry): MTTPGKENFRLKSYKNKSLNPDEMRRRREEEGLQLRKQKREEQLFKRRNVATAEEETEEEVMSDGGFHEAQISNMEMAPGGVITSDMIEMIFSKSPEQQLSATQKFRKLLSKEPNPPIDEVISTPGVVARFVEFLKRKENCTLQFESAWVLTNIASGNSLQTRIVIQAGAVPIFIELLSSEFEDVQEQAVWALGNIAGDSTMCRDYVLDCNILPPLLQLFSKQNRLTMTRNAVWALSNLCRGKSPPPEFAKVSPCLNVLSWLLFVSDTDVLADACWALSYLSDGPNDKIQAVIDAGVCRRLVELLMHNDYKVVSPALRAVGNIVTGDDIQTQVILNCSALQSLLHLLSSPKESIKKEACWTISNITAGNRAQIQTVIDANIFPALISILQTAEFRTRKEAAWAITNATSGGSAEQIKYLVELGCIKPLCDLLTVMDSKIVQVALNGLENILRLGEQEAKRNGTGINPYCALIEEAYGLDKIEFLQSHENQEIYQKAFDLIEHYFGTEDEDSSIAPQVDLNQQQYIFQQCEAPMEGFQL

[6] = target: GST-importin α5 (res. 1-538) (human) (UniProt P52294); assay: SPR; remark: listed apart in the source
[7] = target: GST-importin α5 (1-538) Tyr476Gly (human) (UniProt P52294); assay: SPR; remark: listed apart in the source

Sequence of STAT1 (from UniProt P42224) pSTAT1 (P42224 whole entry, change not shown): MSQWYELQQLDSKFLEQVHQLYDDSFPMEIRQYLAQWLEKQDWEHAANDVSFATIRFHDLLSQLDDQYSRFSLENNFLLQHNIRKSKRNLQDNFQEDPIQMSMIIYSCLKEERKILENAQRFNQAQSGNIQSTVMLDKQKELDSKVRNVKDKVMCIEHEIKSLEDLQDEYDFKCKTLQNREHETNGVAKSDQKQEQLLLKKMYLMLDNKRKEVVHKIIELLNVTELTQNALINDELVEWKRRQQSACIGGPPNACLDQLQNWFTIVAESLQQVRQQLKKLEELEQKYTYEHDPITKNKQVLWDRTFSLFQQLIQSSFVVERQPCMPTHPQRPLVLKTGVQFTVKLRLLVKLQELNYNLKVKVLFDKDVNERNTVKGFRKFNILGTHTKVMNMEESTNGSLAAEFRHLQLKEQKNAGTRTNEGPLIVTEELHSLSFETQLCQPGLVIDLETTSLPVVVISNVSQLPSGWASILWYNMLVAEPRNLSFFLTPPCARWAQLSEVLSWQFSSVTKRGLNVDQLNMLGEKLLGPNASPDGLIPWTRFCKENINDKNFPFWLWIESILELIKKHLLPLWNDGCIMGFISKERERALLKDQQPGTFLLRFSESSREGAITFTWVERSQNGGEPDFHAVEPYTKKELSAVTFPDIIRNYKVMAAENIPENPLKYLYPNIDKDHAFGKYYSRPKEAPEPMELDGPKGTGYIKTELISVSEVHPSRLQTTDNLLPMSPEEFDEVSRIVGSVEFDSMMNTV
Sequence of STAT1 (UniProt P42224) (P42224 whole entry): as the sequence (P42224 whole entry, change not shown) above
Sequence of phosphorylated-Tyr701 STAT1 (1-712), N-terminal 6-histidine tag (P42224 1-712): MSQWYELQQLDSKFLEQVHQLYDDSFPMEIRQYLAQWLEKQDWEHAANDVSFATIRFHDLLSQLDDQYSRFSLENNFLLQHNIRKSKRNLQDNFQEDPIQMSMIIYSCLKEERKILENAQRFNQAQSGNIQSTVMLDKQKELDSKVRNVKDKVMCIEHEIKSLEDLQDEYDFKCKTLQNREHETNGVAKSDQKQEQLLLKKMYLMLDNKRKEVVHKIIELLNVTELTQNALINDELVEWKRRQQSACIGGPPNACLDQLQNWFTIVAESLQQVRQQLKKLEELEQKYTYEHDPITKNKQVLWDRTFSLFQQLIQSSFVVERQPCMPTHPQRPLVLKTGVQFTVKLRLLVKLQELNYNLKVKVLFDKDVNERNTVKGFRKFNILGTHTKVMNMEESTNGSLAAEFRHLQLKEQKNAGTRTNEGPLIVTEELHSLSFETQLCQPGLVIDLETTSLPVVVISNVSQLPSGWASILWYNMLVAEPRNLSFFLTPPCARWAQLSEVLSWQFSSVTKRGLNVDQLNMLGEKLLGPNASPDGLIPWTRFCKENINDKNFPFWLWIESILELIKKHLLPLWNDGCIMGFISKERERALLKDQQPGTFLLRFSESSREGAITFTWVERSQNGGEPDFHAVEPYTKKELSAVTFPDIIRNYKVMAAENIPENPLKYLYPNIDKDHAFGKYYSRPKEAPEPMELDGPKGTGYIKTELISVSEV
Sequence of importin α5, GST-tag removed (human) (P52294 whole entry): as the sequence (P52294 whole entry) above
Sequence of full-length importin-α5 with C-terminal Strep-tag (human) (P52294 whole entry): as above

Substance: STAT1 (from UniProt P42224) pSTAT1
- other: molecular weight (STAT1): same; reference ~180

Substance: Strep-tagged phosphorylated-Tyr701 STAT1 (from UniProt P42224 1-750) (natural protein)
- stoichiometry N (pSTAT1 dimer per importin α5 molecule) [1]: 1

Substance: phosphorylated-Tyr701 STAT1 (1-712), N-terminal 6-histidine tag (from UniProt P42224-2 1-712) (natural protein)
- stoichiometry N (pSTAT1 dimer per importin α5 molecule) [2]: 1
- Kd [3]: 542 nM
- Kd [4]: 4300 nM
- koff [4]: 0.289 s⁻¹
- kon [4]: 66600 M⁻¹ s⁻¹
- Kd [5]: 191 nM
- koff [5]: 0.0189 s⁻¹
- kon [5]: 98800 M⁻¹ s⁻¹
- koff [6]: 0.0183 s⁻¹
- koff [7]: 289 s⁻¹
